Reference: publication PMC9830665

Columns and labels:
[1] = biological target: uridine-specific nidoviral endoribonuclease (NendoU) protein from SARS-CoV-2 (SARS-CoV-2); assay: dynamic light scattering
[2] = biological target: uridine-specific nidoviral endoribonuclease (NendoU) protein from SARS-CoV-2 (SARS-CoV-2); assay: SEC

## uridine-specific nidoviral endoribonuclease (NendoU) protein from SARS-CoV-2 (enzyme)
[1]
  stoichiometry N: 6
[2]
  stoichiometry N: 6
